Experimental data: paper PMC4186839, “Streptomyces coelicolor SCO4226 Is a Nickel Binding Protein” (PLoS ONE, 2014)

Target: the molecule itself
Experiment: crystal structure; Se-Met labelled apo-SCO4226 crystals (1.30 Å) and the same crystals soaked about 1 hr in 0.8 M sodium citrate pH 6.5 with 0.8 M NiSO4 (Ni-SCO4226, 2.04 Å); space group P21; one dimer in each asymmetric unit

B1: SCO4226 (natural protein, Streptomyces coelicolor A3(2), UniProt Q9FCE4 1-82, looked up)
chain: MAHFMDVHRGMHGITSDQLHQAHQADLAVEKDENVHFEQAWADPASGTIYCLSEGPSAEAVQRVHERAGHKADEIHEVPLSA
modifications: seleno-methionine in place of methionine (Se-Met substituted protein)
notes: SCO4226, 82-residue hypothetical protein encoded by the open reading frame SCO4226 of Streptomyces coelicolor A3(2); residues up to Ala82 (C-terminal carboxylate) are seen in the structure; No tag is named here; also called apo-SCO4226; Se-apo-SCO4226; source: E. coli B834 (DE3), Se-Met labelled, purified (nickel-chelating Sepharose, Superdex 75 gel filtration)
For B1, the “stoichiometry N” value was 2.
